Data as given in publication PMC545490, “Mapping and mutation of the conserved DNA polymerase interaction motif (DPIM) located in the C-terminal domain of fission yeast DNA polymerase δ subunit Cdc27” (BMC Molecular Biology, 2004).

Target: T1, LexA-Pol1-278-527 (S. pombe, UniProt P28040 278-527)
T1 construct: Pol1, catalytic subunit of DNA polymerase α, S. pombe, amino acids 278–527; source: yeast two-hybrid fusion (pBTM116, S. cerevisiae CTY10-5d)
T1 sequence (looked up): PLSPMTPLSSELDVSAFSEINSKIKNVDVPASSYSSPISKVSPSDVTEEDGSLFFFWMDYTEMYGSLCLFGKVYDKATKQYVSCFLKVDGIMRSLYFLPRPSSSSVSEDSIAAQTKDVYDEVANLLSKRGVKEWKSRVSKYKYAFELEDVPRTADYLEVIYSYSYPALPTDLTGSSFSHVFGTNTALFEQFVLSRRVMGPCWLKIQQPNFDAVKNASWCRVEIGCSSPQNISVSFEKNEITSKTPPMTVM
Assay: two-hybrid; Gal4 AD prey (pACT2) and LexA bait (pBTM116) in S. cerevisiae lexA op-lacZ strain CTY10-5d; β-galactosidase activity in Miller units
Conditions: partners not purified

B1: Gal4-Cdc27-273-352-P7 (domain or fragment, S. pombe, UniProt P30261 273-352, looked up)
chain: TEAKSAAPDEPQEIIKSVSGGKRRGKRKVKKYATTKDEEGFLVTKEEEVWESFSAAANISTGTSNVVRNKPTTVNIATKK
notes: positions worked out from oligonucleotides CDC27-P6F and CDC27-P7F and the printed DEE 309–311; also called Cdc27-P7; source: yeast two-hybrid fusion (pACT2, S. cerevisiae CTY10-5d)
B1 was tested, and the “strength of the interaction, percent of the wild-type value” was ~10 % of wild-type.
